Measurements taken from patent publication US20160009800A1 (XOMA US, published 2016).

Legend:
human insulin receptor [1] = target: T1, human insulin receptor (human, UniProt P06213 28-1382); test: cell-based or functional assay
[2] = target: T2, human insulin receptor complexed with human insulin (human, UniProt P06213 28-1382; P01308 25-54; P01308 90-110); test: FACS, serum-starved CHO-K1 cells expressing human INSR, with insulin
T2 construct: whole, on cells;mature; also called hINSR-hINS complex; INS/INSR complex

mouse insulin receptor [3] = target: T3, mouse insulin receptor (mouse, UniProt P15208 28-1372); test: cell-based or functional assay
human insulin receptor [4] = target: T1, human insulin receptor; test: cell-based or functional assay; remark: listed apart in the source
[5] = target: T2, human insulin receptor complexed with …; test: FACS, CHO-K1 human INSR cells, signal with insulin divided by signal without insulin
Method: (§1) Twenty five microliter aliquots of cells were plated into 96 well plates, mixed with 25 ul of antibody or PPE and incubated on ice for 1 h.
(§2) The cells were then washed once with FACS buffer and the binding of the antibody was detected by the addition of 25 ul of an appropriate fluorochrome-conjugated secondary antibody. […] After a final 15 min incubation on ice the cells were washed and the pellets resuspended in FACS buffer. The cells were analyzed on a FACSCAN™ (Becton-Dickinson, Milipitas, Calif.) and the data analyzed in both FLOWJO™ (Treestar, Ashland, Oreg.) and Microsoft Excel™.

[6] = target: T2, human insulin receptor complexed with …; test: KinExA antibody depletion by hINSR8-CHOK1 cells, with 175 nM insulin
Method: (§3) Beads were rotated at room temperature for 6 hours then allowed to settle. Supernatant was replaced with PBS with 50 mg/mL BSA Fraction V (Sigma-Aldrich, St. Louis, Mo.) and rotated overnight at 4° C. […] On the KinExA 3000 the sample was injected at 0.25 mL/minute for 240 seconds, then rinsed for 60 seconds in running buffer (PBS with 0.05% sodium azide), then 240 seconds of the detection solution was injected, followed by a final 90 second wash at 1 mL/minute. The difference in voltage from an early initial time-point and a time point near the end of the run was measured and used to calculate affinities. The INSR concentration on the cells was estimated at 2.5×10⁵ receptors/cell. Affinity was determined using the KinExA software (Sāpidyne, Boise Id.) and EC50's were calculated by non-linear fit in Prism (GraphPad Software, La Jolla Calif.).
(§4) Samples were incubated overnight at 4° C. for 18 hours then centrifuged to pellet cells and supernatants were removed for testing on the KinExA. […] Detection solution used was R-PE-(Fab′)2 fragment goat anti-Human IgG(H+L) (Jackson Immuno Research, West Grove Pa.).

[7] = target: T2, human insulin receptor complexed with …; test: KinExA, affinity with insulin against affinity without insulin
Method: as §3, §4

human insulin receptor [8] = target: T1, human insulin receptor; test: KinExA antibody depletion by hINSR8-CHOK1 cells, without insulin
Method: as §3, §4

human insulin receptor [9] = target: T1, human insulin receptor; test: FACS, serum-starved CHO-K1 cells expressing human INSR, no insulin
Method: as §1, §2

mouse insulin receptor [10] = target: T3, mouse insulin receptor; test: FACS, serum-starved CHO-K1 cells expressing mouse INSR, no insulin
[11] = target: T4, mouse insulin receptor complexed with human insulin (mouse; human, UniProt P15208 28-1372; P01308 25-54; P01308 90-110); test: FACS, serum-starved CHO-K1 cells expressing mouse INSR, with insulin
T4 construct: whole, on cells;mature; also called muINSR/hINS complex
Method: as §1, §2

[12] = target: T4, mouse insulin receptor complexed with …; test: FACS, CHO-K1 mouse INSR cells, signal with insulin divided by signal without insulin
Method: as §1, §2

mouse insulin receptor [13] = target: T3, mouse insulin receptor; test: FACS on mouse INSR; conditions not given on the sheet [cont'd]
mouse insulin receptor [14] = target: T3, mouse insulin receptor; test: flow cytometry, biotinylated IgG on mINSR-CHOK1 cells
mouse insulin receptor [15] = target: T3, mouse insulin receptor; test: FACS, serum-starved CHO-K1 cells expressing mouse INSR, no insulin [cont'd]
[16] = target: T2, human insulin receptor complexed with …; test: FACS, serum-starved CHO-K1 cells expressing human INSR, with insulin [cont'd]
Method: as §1, §2

[17] = target: T4, mouse insulin receptor complexed with …; test: FACS, CHO-K1 mouse INSR cells, signal with insulin divided by signal without insulin [cont'd]
mouse insulin receptor [18] = target: T3, mouse insulin receptor; test: cell-based or functional assay; remark: listed apart in the source
human insulin receptor [19] = target: T1, human insulin receptor; test: cell-based or functional assay; remark: listed apart in the source
human insulin receptor [20] = target: T1, human insulin receptor; test: FACS, serum-starved CHO-K1 cells expressing human INSR, no insulin [cont'd]
Method: as §1, §2

human insulin receptor [21] = target: T1, human insulin receptor; test: cell-based or functional assay; remark: listed apart in the source
[22] = target: T4, mouse insulin receptor complexed with …; test: FACS, serum-starved CHO-K1 cells expressing mouse INSR, with insulin [cont'd]
[23] = target: T2, human insulin receptor complexed with …; test: FACS, CHO-K1 human INSR cells, signal with insulin divided by signal without insulin [cont'd]
mouse insulin receptor [24] = target: T3, mouse insulin receptor; test: cell-based or functional assay; remark: listed apart in the source
human insulin receptor [25] = target: T1, human insulin receptor; test: cell-based or functional assay; remark: listed apart in the source

B1: Ab062 (antibody, IgG2, V domains shown)
VH: QVQLQQWGAGLLKPSETLSLTCAVYGGSFSGYYWSWIRQPPGKGLEWIGEINHSGSTNYNPSLKSRVTISVDTSKNQFSLKLSSVTAADTAVYYCARGPSGWYIREFDYWGQGTLVTVSS
VL: QSVLTQPPSVSGAPGQRVTISCTGSSSNIGAGYDVHWYQQLPGTAPKLLIYGNSNRPSGVPDRFSGSKSGTSASLAITGLQAEDEADYYCQSYDSSLSGSGVFGGGTKVTVL
notes: also called XPA.015.211
fold rise of insulin EC50 (pAkt) in the presence of Ab062 (human insulin receptor [1]): 6.6 fold
FACS area under log transformed data MFI [2]: 790
EC50 of pAkt activation without insulin, mouse INSR CHO-K1 cells (mouse insulin receptor [3]): 1.1 nM
relative maximum pAkt activation without insulin, mouse INSR CHO-K1 cells (mouse insulin receptor [3]): 34%
EC50 of pAkt activation without insulin, human INSR CHO-K1 cells (human insulin receptor [4]): 2.43 nM
relative maximum pAkt activation without insulin, human INSR CHO-K1 cells (human insulin receptor [4]): 52%
FACS area under log transformed data MFI ratio (+insulin/-insulin) [5]: 0.57
Kd [6]: 108 pM
Fold Improvement with Insulin [7]: 1.1 fold
Kd (human insulin receptor [8]): 124 pM
FACS area under log transformed data MFI (human insulin receptor [9]): 1400
FACS area under log transformed data MFI (mouse insulin receptor [10]): 1450
FACS area under log transformed data MFI [11]: 1010
FACS area under log transformed data MFI ratio (+insulin/-insulin) [12]: 0.7

B2: Ab045 (antibody, V domains shown)
VH: EVQLLESGGGLVQPGGSLRLSCAASGFTFSSYWMSWVRQAPGKGLEWVSGISGSGGSTDYADSVKGRFTISRDNSKNTLYLQMNSLRAEDTAVYYCARELPAFWSAFDYWGQGTLVTVSF
VL: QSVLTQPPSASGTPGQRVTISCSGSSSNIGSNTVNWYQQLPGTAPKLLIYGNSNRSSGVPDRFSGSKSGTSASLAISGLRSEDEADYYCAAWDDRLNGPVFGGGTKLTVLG
notes: also called XPA.015.111
binding result (mouse insulin receptor [13]): binds

B3: Ab086 (antibody, IgG2, V domains shown)
VH: EVQLVETGGGVVRPGGSLRLSCAASGFTFGDYGMSWVRQAPGKGLEWVSGINWNGGSTGYADSVKGRFTISRDNAKNSLYLQMNSLRAEDTALYYCARDILGVEFDYWGQGTLVTVSS
VL: QSALTQPASVSGSLGQSITISCTGTSSDIGLYKFVSWYQQHPGKAPKLMIYDVSYRPSGVSNRFSGSSSGNTASLTISGLQAEDEADYYCNSYTSSSTLVVFGGGTKLTVL
notes: also called XPA.015.219
binding result (mouse insulin receptor [14]): binds

B4: Ab079 (antibody, IgG2, V domains shown)
VH: QMQLVQSGAEMKKPGASVKVSCKASGYSFSDYGITWVRQAPGQGPEWMGWISGYNGNTNYAQKFQDRVTMTTDTSTSTAYMELRSLKSDDTAVYFCARARGVWMFDNWGQGTLVTVSS
VL: AIRMTQSPSTLSASVGDRVTITCRASQSISTWLAWYQQKPGKAPKLLIYTTSTLESGVPSRFSGSRSGTEFTLTISSLQPDDFATYYCQQYNSYPLTFGGGTKVEIK
notes: also called XPA.015.245
FACS area under log transformed data MFI (mouse insulin receptor [15]): 154
FACS area under log transformed data MFI [16]: 385
FACS area under log transformed data MFI ratio (+insulin/-insulin) [17]: 1.39
fold-change in insulin EC50 (pAkt) relative to isotype control, 20 ug/ml Ab079, mouse INSR CHO-K1 cells (mouse insulin receptor [18]): 8 fold
fold-change in insulin EC50 (pAkt) relative to isotype control, 10 ug/ml Ab079, human INSR CHO-K1 cells (human insulin receptor [19]): 7 fold
Kd [6]: 496 pM
FACS area under log transformed data MFI (human insulin receptor [20]): 296
Fold Improvement with Insulin [7]: 19.4 fold
pAKT assay, fold-decrease in insulin EC50 relative to isotype control Ab (human insulin receptor [21]): 6.7 fold
FACS area under log transformed data MFI [22]: 215
Kd (human insulin receptor [8]): 9600 pM
FACS area under log transformed data MFI ratio (+insulin/-insulin) [23]: 1.3

B5: Ab047 (antibody, V domains shown)
VH: EVQLLESGGGLVQPGGSLRLSCAASGFTFSSYAMSWVRQAPGKGLEWVSSISGGSTYYADSRKGRFTISRDNSKNTLYLQMNSLRAEDTAVYYCARHADQWPGSWFDPWGQGTLVTVSS
VL: QSVLTQPPSASGTPGQRVTISCSGSSSNIGSNTVNWYQQLPGTAPKLLIYDNNKRPSGVPDRFSGSKSGTSASLAISGLRSEDEADYYCQSYDSSLSGWEVFGGGTKLTVLG
notes: also called XPA.015.121
binding result (mouse insulin receptor [13]): no binding

B6: Ab049 (antibody, V domains shown)
VH: EVQLLESGGGLVQPGGSLRLSCAASGFTFSSNYMSWVRQAPGKGLEWVSSISGGSTYYADSRKGRFTISRDNSKNTLYLQMNSLRAEDTAVYYCARLDWSSGAFDIWGQGTLVTVSS
VL: QSVLTQPPSASGTPGQRVTISCSGRSSNIGYNYVSWYQQLPGTAPKLLIYGNSNRPSGVPDRFSGSKSGTSASLAISGLRSEDEADYYCAAWDDSLSGPVFGGGTKLTVLG
notes: also called XPA.015.165
binding result (mouse insulin receptor [13]): no binding

B7: Ab001 (antibody, V domains shown)
VH: EVQLLESGGGLVQPGGSLRLSCAASGFTFSSYEMNWVRQAPGKGLEWVSSISSSSSYIYYADSVKGRFTISRDNSKNTLYLQMNSLRAEDTAVYYCARVRWYKDSDAFDIWGQGTLVTVSS
VL: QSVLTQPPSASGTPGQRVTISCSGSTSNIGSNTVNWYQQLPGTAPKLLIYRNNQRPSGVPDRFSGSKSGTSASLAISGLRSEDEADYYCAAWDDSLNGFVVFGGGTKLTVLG
notes: Positive modulator, Bin 1; also called XPA.015.138
positive modulation of insulin-dependent signaling, pAKT assay, CHOK1 mouse INSR (mouse insulin receptor [24]): ~10 fold
positive modulation of insulin-dependent signaling, pAKT assay, CHOK1 human INSR (human insulin receptor [1]): ~10 fold
fold-change in insulin EC50 (pAkt) relative to isotype control, 2 ug/ml Ab001, mouse INSR CHO-K1 cells (mouse insulin receptor [18]): 7 fold
fold-change in insulin EC50 (pAkt) relative to isotype control, 2 ug/ml Ab001, human INSR CHO-K1 cells (human insulin receptor [19]): 12 fold
Kd [6]: 116 pM
Fold Improvement with Insulin [7]: 103 fold
pAKT assay, fold-decrease in insulin EC50 relative to isotype control Ab (human insulin receptor [21]): 9.7 fold
Kd (human insulin receptor [8]): 12000 pM

B8: Ab061 (antibody, IgG2, V domains shown)
VH: QMQLVQSGAEVKKTGESLKISCQGYGYRFTDNWIGWVRQMPGRGLEWMGIIYPGDSETRYSPSFQGQVTISADKSISTAYLEWSSLKASDTAMYYCARHAPLAVAGMALGDWGQGTLVTVSS
VL: QTVVTQEPSFSVSPGGTVTLTCGLSSGSVSTGYSPGWYQQTPGQAPRTLVYNTNTRSSGVPDRFSGSILGNKAALTITGAQADDESDYYCALYMGSGTYVFGGGTKLTVL
notes: Negative modulator; also called XPA.015.209
fold change in insulin EC50 (pAKT) relative to isotype control mAb, 10 ug/mL Ab061 (human insulin receptor [25]): 269 fold
FACS area under log transformed data MFI (human insulin receptor [9]): 204
FACS area under log transformed data MFI (mouse insulin receptor [10]): 462
FACS area under log transformed data MFI [11]: 170
FACS area under log transformed data MFI ratio (+insulin/-insulin) [12]: 0.37

B9: Ab070 (antibody, IgG2, V domains shown)
VH: EVQLVQSGAEVKKPGESLKISCKGSGYSFTSYWIGWVRQMPGKGLEWMGIIYPGDSDTRYSPSFQGQVTISADKSISTSYLQWSSLRASDTAMYYCARLGSGWYGNDYWGQGTLVTVSS
VL: SSELTQDPAVSVALGQTVRITCQGDSLRSYYTSWYQQKPGQAPVLVIFGKNNRPSGIPDRFSGSSSGNTASLTITGAQAEDEADYYCNSRDSSGNYAVFGGGTQLTVL
notes: Negative modulator; also called XPA.015.226
FACS area under log transformed data MFI (mouse insulin receptor [15]): 587
FACS area under log transformed data MFI ratio (+insulin/-insulin) [17]: 0.66
fold change in insulin EC50 (pAKT) relative to isotype control mAb, 20 ug/mL Ab070 (human insulin receptor [25]): 17 fold
FACS area under log transformed data MFI (human insulin receptor [20]): 283
FACS area under log transformed data MFI [22]: 389

B10: Ab004 (antibody, V domains shown)
VH: EVQLLESGGGLVQPGGSLRLSCAASGFTFRNFAMMWVRQAPGKGLEWVSGISWNSGSIGYADSVKGRFTISRDNSKNTLYLQMNSLRAEDTAVYYCARPSGAYPTPFDNWGQGTLVTVSS
VL: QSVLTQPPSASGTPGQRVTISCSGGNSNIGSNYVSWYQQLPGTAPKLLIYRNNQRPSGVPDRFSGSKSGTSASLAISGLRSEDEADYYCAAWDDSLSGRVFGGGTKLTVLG
notes: Sole member of Bin 7; also called XPA.015.066
binding result (mouse insulin receptor [14]): binds
